From US20260250410A1, “ANTIBODY AND USE THEREOF” (SICHUAN HUIYU PHARMACEUTICAL CO., LTD., priority 2022, published 2026) come the findings set out here.

One experiment relates to MDA-MB-231 cells. Kind of experiment: Flow cytometry binding of murine monoclonal antibody to tumor cells. It counts as cell-based, human. To be noted: cells with high expression of CDCP1. The procedure:
(§1) Flow cytometry was used to detect the binding capacity of antibody to tumor cells. […] 2.0×10^4 tumor cells were added per well, respectively, and 50 μL (PBS+2% FBS) were added, and after blocking at room temperature with an Fe blocker (Human TruStain FcX™, Biolegend, 422302) for 10 mins, an anti-CDCP1 murine monoclonal antibody at a final concentration of 200 nM was added. The obtained mixture was subjected to a 3-fold serial dilution across 8 concentration points, and incubated at 4° C. for 30 mins, and then incubated with a secondary antibody (PE anti-human IgG Fc Antibody, Biolegend, 410708), detection was performed using a flow cytometer.
For orientation: In flow cytometry, cells or beads pass a laser one at a time.

A further experiment concerns PC3 cells. The experiment is described as above. It counts as cell-based, human. Conditions: cells with high expression of CDCP1. As to the method: as §1

B1: SB8: anti-CDCP1 antibody by single B cell technique; VH SEQ ID NO: 278, VL SEQ ID NO: 328 (antibody, V domains shown)
VH: QVTLKESGPGILKPSQTLSLTCSFSGFSLSTSGVGVGWIRQPSGKGLEWLAHIWWDDEKYYNPSLKSHFTISKDTSRNQVFLKITSVDTADTATYYCVKEGDGMDYWGQGTSVTVSS
VL: QAVVTQESALTTSPGETVTLTCRSSTGAVATSNYANWVQEKPDHLFTGLIGGTNNRVPGVPARFSGSLIGDKAALTITGAQTEDEAIYFCALWYSNHWVFGGGTKLTVL
modifications: SB8 heavy chain variable region; SB8 light chain variable region
As for B1, the EC50 (as a rule, the concentration giving half of the maximal effect) in the experiment with MDA-MB-231 cells amounted to 930 pM; in the experiment on PC3 cells it was 910 pM.
